Tested on: PRO256 polypeptide
Sequence (chain, as listed by the source): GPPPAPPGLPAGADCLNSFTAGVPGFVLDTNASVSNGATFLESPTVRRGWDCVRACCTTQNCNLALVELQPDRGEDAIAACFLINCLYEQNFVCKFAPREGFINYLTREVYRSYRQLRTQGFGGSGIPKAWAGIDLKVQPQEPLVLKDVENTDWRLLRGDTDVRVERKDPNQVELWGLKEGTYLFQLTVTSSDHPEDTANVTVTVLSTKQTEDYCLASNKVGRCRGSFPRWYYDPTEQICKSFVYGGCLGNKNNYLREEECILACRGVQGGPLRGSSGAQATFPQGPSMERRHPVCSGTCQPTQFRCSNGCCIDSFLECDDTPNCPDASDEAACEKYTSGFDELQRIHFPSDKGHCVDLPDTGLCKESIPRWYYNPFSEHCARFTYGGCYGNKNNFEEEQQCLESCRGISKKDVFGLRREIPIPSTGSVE

human kallikrein (Haematologic Technologies), sequence (chain, as listed by the source): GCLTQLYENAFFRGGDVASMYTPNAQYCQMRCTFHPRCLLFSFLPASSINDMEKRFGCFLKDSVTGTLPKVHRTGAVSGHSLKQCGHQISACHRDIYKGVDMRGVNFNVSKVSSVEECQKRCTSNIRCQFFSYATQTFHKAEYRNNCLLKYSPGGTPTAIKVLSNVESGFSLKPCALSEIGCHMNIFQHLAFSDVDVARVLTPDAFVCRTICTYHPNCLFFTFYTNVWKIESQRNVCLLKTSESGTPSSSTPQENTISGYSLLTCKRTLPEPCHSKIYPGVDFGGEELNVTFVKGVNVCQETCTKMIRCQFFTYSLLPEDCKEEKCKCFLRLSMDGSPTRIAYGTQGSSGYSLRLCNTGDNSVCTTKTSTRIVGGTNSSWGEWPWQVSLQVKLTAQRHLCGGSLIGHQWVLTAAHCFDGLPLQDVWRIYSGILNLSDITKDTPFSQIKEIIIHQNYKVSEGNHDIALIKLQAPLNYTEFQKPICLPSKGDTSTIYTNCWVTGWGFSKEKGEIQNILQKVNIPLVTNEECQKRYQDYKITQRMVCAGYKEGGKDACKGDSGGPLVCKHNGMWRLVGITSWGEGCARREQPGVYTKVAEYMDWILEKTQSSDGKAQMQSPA

human kallikrein (Haematologic Technologies)
kallikrein (40 nM) conversion of ^125I-scHGF into its two chain form, SDS-PAGE/autoradiography, PRO256 at 1 µM: In the presence of PRO256, kallikrein conversion of ^125I-scHGF into its two chain form is inhibited over the 4 hour incubation period compared with the control.
